# Test results taken from the DeepSol protein solubility set.
# Assay: soluble on expression in E. coli; label from the status in PepcDB or PDB records
row,Sequence,soluble on expression in E. coli
1,MENSGHKVYYCMGSPLFALNAGRMENNLVAFSGGLSINKQLQKEGKPGINVSPSFINENNPDTIFISGFLSRPLDEFYTLCRQYGIETDAVKQQRVYEVPPSWDFGNPRWILGLMYIADKLYPGNSGIDLEKEADEFYRQFYGMPYLEHHHHHH,soluble
2,MEPPKLLGVVLTTALLFHIALTAKQAVVSRKSKLCGNVECEEVLFKARVKRVMGINNDPSFLNLAENAIISVVAVKFSDRPDIMEGKLNGEGSNGFFYAGAIDIMPFAEFLRTAITDKKEMLMISQNPADIGDKRIVGFLHSETDLVRDFNAKNAQAAAENGLPAPEPIPIPEPAHTGHGHSHGGHGHSHGGHGHSHGHPAPTPAPTPAPKPIEEAPKPAEEPVKPADLEMDAEIERLIKEEEERMKNVAEQPPLVLQSLPETPEAQKLPEEPLEPVTPEPIPEAPVPIAQYIQEPTTTPAPLEAPAPVENAPNLPTPTFSVDDLMAQAARDALNSNSIVPDAPKVEEPEPAPTPAPAPAEDPVVTPAPEELTGVCYKDDCQGLQTPPPPAPPPPAPAVPEEAQAPTPAPEEAPEAQIPAETAQIPPENAVPEAPEEPAPTTTPPPISAGEAEFLKWEEARQKREAVAAAPYEDAQAHQFVASPPPHVSSGLIELIRSSLGLGNITDSSVLLVVNLTFVAASFLVYIIIRSLSSGGESDILDRQAHFDLMNKHKQLQLQLNAKITEIQNLQANGAAAQRPEQPNYEPELLALRQQLAHLQSELQTAHAQRQEFEIHYHQIRELAEQKDHQIAQLTEQANDYQERLEKSQSELQELARHVDSARAELMDSQTSDYGRQQELMEKQAELEQIYVKIDNLTAENRDLTDKIAQLQVSDSLELEELEELRNKNLELQEQVKQLKEELEKEKSVAGSGNSGGWSDIDDNEVVEAVQPIETTPISSENSENLKKFEAEIAELKASLEKTEKELTKYRNLYNEKLTAISDKENRSQIEMEHKLKNAESDLQEAKRRAEEIGAEKKELSDRLNEMLKNLNQSMQKSAENDKMLTQLREEAFAKEKQLLEHDSVLRKKDDKIRELDAEFKRVKMEYVKLETKSFHDVRKLNMDVEELKTQLSMAGGVTSSRSIPDRLVSPLQEPIWDEPEPALQRVVLPLDGYSSMRRRSTRRSQLPFGAESPSDQEKKQAAPSHRRRSRSHGRQPPSFHDPYSMNPYLPGSSDSSFMSTSQPQFLPLNRQHSRSGHLMSNSANGPYSSGGSNGGRSPPPEMPLLSAIPPPGARKPLGKRPDSAHHLGK,not soluble
3,MEPQLRCIGCGAAIQFENPKNAGYAPKSVLEKDAEEVICQRCFRLKHYNEVQDVPLDDDDFLSMLHRIGESKALVVNIVDIFDFNGSFIPGLPRFAADNPILLVGNKADLLPRSVKYPKLLRWMRRMAEELGLCPVDVCLVSAAKGIGMAKVMEAINRYREGGDVYVVGCTNVGKSTFINRIIEEATGKGNVITTSYFPGTTLDMIEIPLESGATLYDTPGIINHHQMAHFVDARDLKIITPKREIHPRVYQLNEGQTLFFGGLARLDYIKGGRRSFVCYMANELTVHRTKLEKADSLYANQLGELLSPPSKRYAAEFPPLVPRSLSVKERKTDIVFSGLGWVTCNDPGAQLVVHAPKGVDVFIRQSLI,soluble
4,MEPTGMMVAAPTASLPEAIGGERNWDYRYTWIRDTAYVIEALATIGYKREAVSFLYDMMDVISRENKIRTIYSIDNSDDFVERELDFEGYRGSRPVRIGNKAVDQLQIDQYGSIVRAIHAMEKAGGVVNSYLWDFVEEMMAKIEYLWKYPDSSIWEFRTEPKQYVYSKVMSWAAFDSAITMARDLGLTAPIKKWKGIQDEIWNDVMTKGFDPQTNSFVQYYGSKNVDASLLRLPILGFIPANDERFIGTMKRIEDELMVDGYLFRRYREDDGLKGDEGSFLMLTFWYIEDLILMKRLKAARAALESIIEKANHLGLYSEEIDEKTGDFLGNFPQALSHLGIIRVAPKLEEAFLKRVSKINELEHHHHHH,not soluble
5,MEPWKQCAQWLIHCKVLPTNHRVTWDSAQVFDLAQTLRDGVLLCQLLNNLRAHSINLKEINLRPQMSQFLCLKNIRTFLTACCETFGMRKSELFEAFDLFDVRDFGKVIETLSRLSRTPIALATGIRPFPTEESINDEDIYKGLPDLIDETLVEDEEDLYDCVYGEDEGGEVYEDLMKAEEAHQPKCPENDIRSCCLAEIKQTEEKYTETLESIEKYFMAPLKRFLTAAEFDSVFINIPELVKLHRNLMQEIHDSIVNKNDQNLYQVFINYKERLVIYGQYCSGVESAISSLDYISKSKEDVKLKLEECSKRANNGKFTLRDLLVVPMQRVLKYHLLLQELVKHTTDPTEKANLKLALDAMKDLAQYVNEVKRDNETLREIKQFQLSIENLNQPVLLFGRPQGDGEIRITTLDKHTKQERHIFLFDLAVIVCKRKGDNYEMKEIIDLQQYKIANNPTTDKENKKWSYGFYLIHTQGQNGLEFYCKTKDLKKKWLEQFEMALSNIRPDYADSNFHDFKMHTFTRVTSCKVCQMLLRGTFYQGYLCFKCGARAHKECLGRVDNCGRVNSGEQGTLKLPEKRTNGLRRTPKQVDPGLPKMQVIRNYSGTPPPALHEGPPLQLQAGDTVELLKGDAHSLFWQGRNLASGEVGFFPSDAVKPCPCVPKPVDYSCQPWYAGAMERLQAETELINRVNSTYLVRHRTKESGEYAISIKYNNEAKHIKILTRDGFFHIAENRKFKSLMELVEYYKHHSLKEGFRTLDTTLQFPYKEPEHSAGQRGNRAGNSLLSPKVLGIAIARYDFCARDMRELSLLKGDVVKIYTKMSANGWWRGEVNGRVGWFPSTYVEEDE,soluble
6,MEQKKKKNIGFNIIKDDPTDGHRGFGAGALSLENVSPVIIDVEAGEAFVDMGAMHARSAVERGIKFLPDRSAVPNGKPYWIVWVTIERREDGPYYAGVTACEMTIDREARRGYKLLPEHVNRLDKSLKRHIIVDHMDAKSKRVLADFLKGHDIGMWNRSSDELKKGLEGEL,not soluble
7,MEQLTVQGLVRLMGAGANLVCVVTDNERRTEAIVGQATARLKGAGSPLVWTCTDGFTRDGTVVPGTVDPVAALDHALAHPAPLMTLFKDLSWFWSDNPYVIRKLKEFAVRARGKAAVVLARDESVPAELREDIVVLGQGLPGIGEITAFLGQLKEREPVLAAACAGHPGLMDHLVVAAQGLDLVDIERGVRALRNVPEAAGHEMVRSLFETKQAVIRRSGIMEFVANDTAPEQVGGMENLKAWMERREQAFGLESIASGAALPKGILMMGIAGCGKSLFVKAIAARWRLPLIRLDMAAVYDGSFGTPESSLRKAFRTAEAVAPCVLWIDEIESGISVQGFKAEGGPASRLLGSFLTWMQEKKAPVFVAATANAIEMLPAEIIRKGRFDEVFYVGLPDAGAREDIFRIHLERQKADSARFDVPLLAGSTKGFSGAEIEQAVLSAAFEARADRRTLTQQDVIVAVSRTVPLSVTMAEQIKKIEAWAFKRAVPAAGKF,not soluble
8,MEQMRFKPRPFVKPVKFKCKFCLDCCKGRHVYLTLNDIKRLIDAGYDPQDFLTISIEDGKIRFVLSVREWDLGCVFQDPETGLCKVHPHRPLICRIYPFMVSKKPLGIKGEKKFEINGKSFWLYYDENCPGINDEDGDTITPEEILKLGIKFEEELEATDLDGFLKILRSLEHHHHHH,soluble
9,MERSQCGSRDRGVSGRPHLAPGLVVAAPPPPSPALPVPSGMQCARCRNHGVVSALKGHKRFCRWRDCACAKCTLIAERQRVMAAQVALRRQQAQEESEARGLQRLLCSGLSWPPGGRASGGGGRAENPQSTGGPAAGAALGLGALRQASGSATPAFEVFQQDYPEEKQEQKESKCESCQNGQEELISKSHQLYLGSSSRSNGVIGKQSIGSSISEYSNKPDSILSPHPGEQSGGEESPRSLSSSDLESGNESEWVKDLTATKASLPTVSSRPRDPLDILTKIFPNYRRSRLEGILRFCKGDVVQAIEQVLNGKEHKPDNRNLANSEELENTAFQRASSFSLAGIGFGTLGNKSAFSPLQTTSASYGGDSSLYGVNPRVGISPLRLAYSSAGRGLSGFMSPYLTPGLVPTLPFRPALDYAFSGMIRDSSYLSSKDSITCGRLYFRPNQDNP,soluble
10,MESILITGASGFIGSFIVEEALKRKFGVWAGIRPTSSKKYLKNRKIHFLELDFAHPNELRAQLSGHKGTYNKFDYIIHCAGVTKCPDKNTFDYVNYLQTKYFIDTLKALNMVPKQFIYISTLSVFGPVREKDYSPIEAGDVPMPNTAYGLSKLKAELYIQSIPGFPYVIYRPTGVYGPRELDYFLMAKSIRQHVDFSVGFRRQDLTFVYVKDIVQAIFLGIEKKVTRRAYFLTDGKVYNSRVFSDLIQKELGNPFVIHVKCPLIVLKVISLLAEFIATRSGKSSTLNSDKYKIMKQRNWQCDITPAINELGYAPEYDLEKGVRETIDWYKNEGWL,not soluble
11,MESVSCSAAAVRTGDMESQRDLSLVPERLQRREQERQLEVERRKQKRQNQEVEKENSHFFVATFARERAAVEELLERAESVERLEEAASRLQGLQKLINDSVFFLAAYDLRQGQEALARLQAALAERRRGLQPKKRFAFKTRGKDAASSTKVDAAPGIPPAVESIQDSPLPKKAEGDLGPSWVCGFSNLESQVLEKRASELHQRDVLLTELSNCTVRLYGNPNTLRLTKAHSCKLLCGPVSTSVFLEDCSDCVLAVACQQLRIHSTKDTRIFLQVTSRAIVEDCSGIQFAPYTWSYPEIDKDFESSGLDRSKNNWNDVDDFNWLARDMASPNWSILPEEERNIQWD,soluble
12,MESYSQRQDHELQALEAIYGSDFQDLRPDARGRVREPPEINLVLYPQGLAGEEVYVQVELRVKCPPTYPDVVPEIDLKNAKGLSNESVNLLKSHLEELAKKQCGEVMIFELAHHVQSFLSEHNK,soluble
13,METRKAEGEVIVVGAGLAGLVAAAELADAGRRVLILDQEGEQNLGGQAHWSFGGLFFVDSPEQRRLGIRDSLDLARRDWETAAGFDRPEDHWPRKWAEAYLEFAAGEKREWLHRQGMRWFPAVGWAERGGAGAGLPGNSVPRFHITWGTGPGVLEPFVRRVREHQRAGRIEFRFRHRVRGLTLTAGRVTGVHGDVLEPSDVGRGETSSRVVTGDFELTAQAVLITSGGIGGNHELVRRYWPTERLGPAPEVMLSGVPRHVDGLLQQQVVAQGGSLINPDRMWHYTEGVRNWDPVWPQHGIRILPGPSSLWLDPSGRRLPFPHIPGASSYDTLRHITTHGYPHTWFLLNRAVIKREFGLSGSEQNPDLTGKDLRLTLRRASKHVPGPVQAFMDRGEDFVVRDNLRDLVRGMNELTGGELLDYATVEREVLDRDLQVHNVAGKDAQLAIVRGARAILSERLTRVAKPAPLLDPAQGPLIAVRLSVLTRKSLGGLETDLQGRVIGAGGQPLPDLYAAGEVAGFGGGGYHGYRALEGTFLGGCLFSGRAAGRAIAGAL,not soluble
14,METSKEFEFRPAKETSRSKSPGGIVGRLSNFARNKARHSLSEKGSNSVGGSGGAGFDKPRKDLLKEFHKCKEAQDQRLDLSSIEITSIPSPIKELTQLTELFLYKNKLTCLPTEIGQLVNLKKLGLSENALTSLPDSLASLESLETLDLRHNKLTEVPSVIYKIGSLETLWLRYNRIVAVDEQIGNLSKLKMLDVRENKIRELPSAIGKLTSLVVCLVSYNHLTRVPEEIGDCHSLTQLDLQHNDLSELPYSIGKLVNLVRIGIRYNKIRCIPSELESCQQLEEFIVESNHLQLLPPNLLTMLPKIHTVNLSRNELTAFPAGGPQQFVSTVTINMEHNQISKIPIGIFSKATRLTKLNLKENELVSLPLDMGSWTSITELNLSTNQLKVLPEDIEKLVNLEILVLSNNQLKKLPNQIGNLNKLRELDLEENELETVPTEIGFLQHLTKLWVQSNKILTLPRSIGNLCSLQDLRLGENNLTAIPEEIGHLDSLKSLYLNDNSSLHNLPFELALCQSLEIMSIENSPLSQIPPEITAGGPSLVIQYLKMQGPYRGVVMNSQ,not soluble
